Drawing on PMC314469, “Protein Interaction Networks by Proteome Peptide Scanning” (PLoS Biology, 2004), this text covers normalised SPOT signal, Boehringer light units (BLU); mean over the file's lines of this peptide for 55 molecules.

To fix the notation:
B1: 379-392 Hypothetical ORF (peptide)
chain: EILPQAPAKKVFES
B2: 165-178 Hypothetical ORF (peptide)
chain: SGFPLLPSKRGVTA
B3: 7-20 11-kDa nonhistone chromosomal protein (peptide)
chain: AKQPKEPKKRTTRR
B4: 149-162 Hypothetical ORF (peptide)
chain: DERPFRPKRTSRSA
B5: 340-353 Triacetylfusarinine C transporter (peptide)
chain: ALVPFAPFKLLKDR
B6: 505-518 Actin binding protein (peptide)
chain: EAAPQLPSRSSAAP
B7: 629-642 MCM3 protein homolog (S. cerevisiae) (peptide)
chain: DFTPVEPSKMREYI
B8: 26-39 Hypothetical ORF (peptide)
chain: ASLPVGPRKNGMNV
B9: 849-862 " contains 3 SH3 domains, interacts with Bee1p" (peptide)
chain: APAPLDPFKTGGNN
B10: 364-377 " mRNA cap-binding protein (eIF-4F), 150K subunit , highly homologous to Tif4632p, homologs of mammalian p220" (peptide)
chain: ATTPAIPTKSDEAE
B11: 1404-1417 Type 1 membrane protein with EF hand motif (peptide)
chain: YSNPQTPLRSLAGL
B12: 350-363 Hypothetical ORF (peptide)
chain: DESPIDPSKAPKVP
B13: 91-104 Hypothetical ORF (peptide)
chain: AIEPGVPSRYSDET
B14: 158-171 putative methylenetetrahydrofolate reductase (mthfr) (peptide)
chain: ESHPELPNKDVKLD
B15: 783-796 Hypothetical ORF (peptide)
chain: EANPDNPKKLDLKA
B16: 587-600 Protein Kinase C (peptide)
chain: APLPPQPRKHDKTP
B17: 345-358 Product of gene unknown (peptide)
chain: ARDPILPYRLVKDR
B18: 11-24 nuclear pore protein (peptide)
chain: ATVPSAPYRKQIIS
B19: 237-250 Hypothetical ORF (peptide)
chain: DELPSPPLRMVHID
B20: 301-314 ubiquitin carboxyl-terminal hydrolase (peptide)
chain: DRPPDVPRKIIVGR
B21: 727-740 Hypothetical ORF (peptide)
chain: APTPPAPSRSEKLH
B22: 122-135 Hypothetical ORF (peptide)
chain: DVLPAGPVRSLEGA
B23: 382-395 Transcription factor (fork head domain) (peptide)
chain: DPLPYSPLKLYDQK
B24: 216-229 acetyl CoA hydrolase (peptide)
chain: DSIPVDPEKVVAIV
B25: 81-94 transcription factor (peptide)
chain: EHKPVSPDKIGTFT
B26: 73-86 Homeobox-domain containing transcription fractor which is a positive regulator of PHO5 and other genes. (peptide)
chain: DSGPQRPKRTRAKG
B27: 808-821 involved in bud site selection (peptide)
chain: EILPVKPTKKSSKK
B28: 585-598 protein kinase domain (peptide)
chain: ATRPSSPMRHKSIS
B29: 384-397 Hypothetical ORF (peptide)
chain: AVDPENPKKLASKF
B30: 274-287 Mitochondrial ribosomal protein MRPL35 (YmL35) (peptide)
chain: DYLPPVPEKNAGKQ
B31: 526-539 heat shock transcription factor (peptide)
chain: AGSPIRPYKQRYLL
B32: 269-282 Hypothetical ORF (peptide)
chain: AAWPLDPARERWTR
B33: 471-484 Actin binding protein (peptide)
chain: EIAPSLPSRNSIPA
B34: 249-262 Hypothetical ORF (peptide)
chain: DYQPLSPPRELDPD
B35: 490-503 Amino acid permease (peptide)
chain: DSLPKLPFRSWGQP
B36: 228-241 Hypothetical ORF (peptide)
chain: YTLPLLPGKGGFRI
B37: 1313-1326 component of the mitotic spindle (peptide)
chain: DDTPSIPSKISSKS
B38: 90-103 uridine permease (peptide)
chain: DHKPENPIRTFKDL
B39: 65-78 origin recognition complex subunit 2 (peptide)
chain: ALKPKTPSKAPRKR
B40: 186-199 Hypothetical ORF (peptide)
chain: DLPPKFPEKPVHLV
B41: 158-171 homologous to mouse and human Tsg101 tumor susceptibility genes (peptide)
chain: DQAPSLPPKPNTQL
B42: 330-343 Hypothetical ORF (peptide)
chain: AKSPLLPFKLLSDR
B43: 446-459 Actin binding protein (peptide)
chain: AAQPPLPSRNVASG
B44: 174-187 gamma subunit of translational initiation factor eIF-2 (peptide)
chain: SQRPGSPGRYKLVR
B45: 84-97 component of peroxisomal import machinery (peptide)
chain: AMPPTLPHRDWKDY
B46: 315-328 invertase (sucrose hydrolyzing enzyme) (peptide)
chain: AFVPTNPWRSSMSL
B47: 51-64 Involved in protecting the cell against bleomycin damage (peptide)
chain: DGRPHSPLRARSAT
B48: 139-152 Hypothetical ORF (peptide)
chain: DSLPFAPLRKVYEL
B49: 109-122 scaffold protein for MAP kinase cascade (peptide)
chain: DYLPQHPHRTSSLP
B50: 216-229 " first enzyme in dityrosine synthesis in the outer layer of the spore wall pathway converting L-tyrosine to N-formyl-L- (peptide)
chain: SILPAFPSKSSNEQ
B51: 250-263 Hypothetical ORF (peptide)
chain: SREPEVPQRLLTLI
B52: 805-818 " contains 3 SH3 domains, interacts with Bee1p" (peptide)
chain: DLQPLEPKKAAAST
B53: 597-610 component of vacuolar membrane protein complex (peptide)
chain: EIAPLIPKKPALRK
B54: 82-95 50-kDa subunit of ORC (peptide)
chain: DSIPLEPKKAKHLM
B55: 311-324 3-phosphoglycerate dehydrogenase (peptide)
chain: DVYPHEPAKNGEGS

Chain of Sho1 SH3 (SHO1_YEAST), P40073 (P40073 295-366): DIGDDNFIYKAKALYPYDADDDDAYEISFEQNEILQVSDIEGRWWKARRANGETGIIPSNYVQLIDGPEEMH

The experiment has as its target Sho1 SH3 (SHO1_YEAST), P40073. Kind of experiment: SPOT array.
Molecule B1 registered a normalised SPOT signal, Boehringer light units (BLU); mean over the file's lines of this peptide of 132.
B2 came in with a normalised SPOT signal, Boehringer light units (BLU); mean over the file's lines of this peptide of 644.
Molecule B3 registered a normalised SPOT signal, Boehringer light units (BLU); mean over the file's lines of this peptide of 103.
B4 came in with a normalised SPOT signal, Boehringer light units (BLU); mean over the file's lines of this peptide of 183.
B5: the normalised SPOT signal, Boehringer light units (BLU); mean over the file's lines of this peptide was 129.
B6 yielded a normalised SPOT signal, Boehringer light units (BLU); mean over the file's lines of this peptide of 86.7.
B7 came in with a normalised SPOT signal, Boehringer light units (BLU); mean over the file's lines of this peptide of 91.
Take B8: the normalised SPOT signal, Boehringer light units (BLU); mean over the file's lines of this peptide amounted to 215.
In the case of B9, the normalised SPOT signal, Boehringer light units (BLU); mean over the file's lines of this peptide came to 681.
Take B10: the normalised SPOT signal, Boehringer light units (BLU); mean over the file's lines of this peptide worked out at 169.
The result for B11 reads 217; that for B12, 96.8.
Molecule B13 returned a normalised SPOT signal, Boehringer light units (BLU); mean over the file's lines of this peptide of 125.
In turn, B14 showed a normalised SPOT signal, Boehringer light units (BLU); mean over the file's lines of this peptide of 53.7.
Molecule B15 gave a normalised SPOT signal, Boehringer light units (BLU); mean over the file's lines of this peptide of 130.
For B16, the normalised SPOT signal, Boehringer light units (BLU); mean over the file's lines of this peptide was determined as 152.
Then B17, with 118; and B18, with 122; and B19, with 224.
On to B20, for which the normalised SPOT signal, Boehringer light units (BLU); mean over the file's lines of this peptide was 477.
B21 returned a normalised SPOT signal, Boehringer light units (BLU); mean over the file's lines of this peptide of 258.
Then B22, with 115.
Regarding B23, the normalised SPOT signal, Boehringer light units (BLU); mean over the file's lines of this peptide is 144.
As for B24, the normalised SPOT signal, Boehringer light units (BLU); mean over the file's lines of this peptide was 91.
B25 displayed a normalised SPOT signal, Boehringer light units (BLU); mean over the file's lines of this peptide of 0.
The result for B26 reads 202; that for B27, 281; that for B28, 401.
As for B29, the normalised SPOT signal, Boehringer light units (BLU); mean over the file's lines of this peptide stood at 83.2.
Take B30: the normalised SPOT signal, Boehringer light units (BLU); mean over the file's lines of this peptide came to 224.
As to B31, the normalised SPOT signal, Boehringer light units (BLU); mean over the file's lines of this peptide came out at 86.2.
Regarding B32, the normalised SPOT signal, Boehringer light units (BLU); mean over the file's lines of this peptide stood at 137.
B33 yielded a normalised SPOT signal, Boehringer light units (BLU); mean over the file's lines of this peptide of 163.
B34 showed a normalised SPOT signal, Boehringer light units (BLU); mean over the file's lines of this peptide of 75.3.
The molecule B35 yielded a normalised SPOT signal, Boehringer light units (BLU); mean over the file's lines of this peptide of 333.
Molecule B36 yielded a normalised SPOT signal, Boehringer light units (BLU); mean over the file's lines of this peptide of 509.
B37 displayed a normalised SPOT signal, Boehringer light units (BLU); mean over the file's lines of this peptide of 207.
The result for B38 reads 168; that for B39, 830; that for B40, 65.8.
As to B41, the normalised SPOT signal, Boehringer light units (BLU); mean over the file's lines of this peptide stood at 176.
Take B42: the normalised SPOT signal, Boehringer light units (BLU); mean over the file's lines of this peptide worked out at 160.
The result for B43 reads 81.6.
The result for B44 reads 178; that for B45, 321.
Take B46: the normalised SPOT signal, Boehringer light units (BLU); mean over the file's lines of this peptide amounted to 620.
The result for B47 reads 37.1.
For B48, the normalised SPOT signal, Boehringer light units (BLU); mean over the file's lines of this peptide was 96.8.
The molecule B49 showed a normalised SPOT signal, Boehringer light units (BLU); mean over the file's lines of this peptide of 87.8.
In the case of B50, the normalised SPOT signal, Boehringer light units (BLU); mean over the file's lines of this peptide came out at 73.6.
Turning to B51, the normalised SPOT signal, Boehringer light units (BLU); mean over the file's lines of this peptide is 105.
The molecule B52 returned a normalised SPOT signal, Boehringer light units (BLU); mean over the file's lines of this peptide of 220.
In the case of B53, the normalised SPOT signal, Boehringer light units (BLU); mean over the file's lines of this peptide came out at 183.
For the molecule B54, the normalised SPOT signal, Boehringer light units (BLU); mean over the file's lines of this peptide came to 133.
Regarding B55, the normalised SPOT signal, Boehringer light units (BLU); mean over the file's lines of this peptide is 132.
